The target in assay [1] is TirM-ΔVBS1 (TarP VBD deleted for VBS1, Thr714-Arg832, fused to TirM) (Chlamydia caviae strain GPIC).
In assay [2] the target is TirM-TarP FL (full-length C. caviae GPIC TarP fused to TirM) (Chlamydia caviae strain GPIC).

Regarding vinculin (natural protein), the frequency of vinculin recruitment to Δtir EPEC-clustered TirM fusion at the plasma membrane of Cos7 cells (immunofluorescence), decrease relative to WT VBD in assay [1] came to 1.6 fold. Besides, the frequency of vinculin recruitment to Δtir EPEC-clustered TirM fusion at the plasma membrane of Cos7 cells (immunofluorescence), TarP-FL relative to TirM-TarP1-714 in assay [2] was found to be 3 fold.

The values are drawn from publication PMC4663276.
